The target of test [1] is T1, cyno 4-1BB on HEK293 cells (cyno, UniProt A9YYE7 24-254).
T1 construct: whole, on cells; also called Cynomolgous 4-1BB; HEK293 cells over-expressing cyno 4-1BB
Briefly: flow cytometry, HEK293 cells over-expressing cyno 4-1BB. How it is done: (§1) Human/Cyno/Mouse 4-1BB transfected HEK293 cells or PHA-P stimulated PBMCs were incubated with serial diluted anti-4-1BB antibodies in FACS buffer (DPBS+ 2% FBS+ 0.05% sodium azide) followed by AF647-labeled F(ab′)2 goat anti-human IgG and 7-AAD. In addition, PBMCs were incubated with FITC Mouse anti-human CD3. Stained 4-1BB expressing HEK293 samples were analyzed using FlowJo by gating on FSC/SSC, followed by live/dead cell gating, and human/Cynomolgous/Mouse 4-1BB+ cells (MFI Geo Mean denoted). Stained Lymphocyte samples were analyzed using FlowJo by gating on FSC/SSC, followed by live/dead cell gating, and CD3+ cells with 4-1BB positives. (Table 2 and Table 3)
(A flow cytometer gives signals particle by particle.)

Test [2] has as its target T2, human 4-1BB on cells (human, UniProt Q07011 24-255). Nature of the test: cell-based or functional assay.
Test [3] deals with T3, mouse 4-1BB on HEK293 cells (mouse, UniProt P20334 24-256).
T3 construct: whole, on cells; also called Mouse 4-1BB transfected HEK293 cells
T3 sequence (looked up): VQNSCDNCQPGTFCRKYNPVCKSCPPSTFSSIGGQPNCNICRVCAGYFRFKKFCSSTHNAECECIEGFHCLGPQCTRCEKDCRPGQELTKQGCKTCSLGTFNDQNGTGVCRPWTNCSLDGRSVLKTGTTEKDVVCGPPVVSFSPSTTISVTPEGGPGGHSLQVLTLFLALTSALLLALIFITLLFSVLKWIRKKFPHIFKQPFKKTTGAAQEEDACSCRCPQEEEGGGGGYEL
Briefly: flow cytometry, mouse 4-1BB transfected HEK293 cells. How it is done: as §1

Test [4] has as its target T2, human 4-1BB on cells. Briefly: flow cytometry, HEK293 cells over-expressing human 4-1BB. On the procedure: as §1
For test [5], the target named is T2, human 4-1BB on cells. Nature of the test: flow cytometry, activated (PHA-P stimulated) human T cells. On the procedure: as §1
Test [6] addresses T4, 4-1BB (CD137), antigen of the Octet kinetics (UniProt Q07011 24-186, limits assumed).
T4 construct: also called TNFRSF9
Nature of the test: Octet (BLI), mono-valent binding kinetics. (In general: Biolayer interferometry detects binding as a change in optical thickness at a sensor tip.)

The target of test [7] is T2, human 4-1BB on cells. Briefly: cell-based or functional assay. The source holds these as a separate data set.

This is an account of results in patent publication US20220064314A1 (QLSF BIOTHERAPEUTICS, published 2022).

T2 sequence (Q07011 24-255): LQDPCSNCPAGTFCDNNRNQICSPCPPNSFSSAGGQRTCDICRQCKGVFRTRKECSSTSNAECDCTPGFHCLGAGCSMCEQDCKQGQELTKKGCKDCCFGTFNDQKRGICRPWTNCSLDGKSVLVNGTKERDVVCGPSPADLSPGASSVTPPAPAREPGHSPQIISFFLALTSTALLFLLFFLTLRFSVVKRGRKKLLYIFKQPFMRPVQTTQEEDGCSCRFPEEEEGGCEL
T1 sequence (A9YYE7 entry or part of it): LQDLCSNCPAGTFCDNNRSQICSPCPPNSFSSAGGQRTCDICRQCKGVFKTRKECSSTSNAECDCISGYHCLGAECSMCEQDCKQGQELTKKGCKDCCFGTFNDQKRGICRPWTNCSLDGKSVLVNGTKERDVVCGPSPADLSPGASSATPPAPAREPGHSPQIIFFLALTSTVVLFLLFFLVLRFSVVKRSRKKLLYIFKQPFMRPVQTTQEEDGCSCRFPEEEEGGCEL

B1: G28.21 (antibody, V domains shown)
VH: EVQLQQSGAELVRPGASVKLSCTASGFNIKDYYIHWVNQRPEQGLEWIGRIDPEDGDIAYAPKFQDKATLTVDTSSNTAYLHIIGLTSEDTAVYYCTTGNYYAMDFWGQGTSVTVSS
VL: QIVLTQSPAIMSASLGERVTMTCTASSSVSSSYLHWYQQKPGSSPKLWIYSTSNLASGVPARFSGSGSGTSYSLTISSMEAEDAATYYCHQYHRSPPTFGSGTKLEIK
notes: also called anti-4-1BB mAb G28.21
Consider B1, for which the EC50 (as a rule, the concentration giving half of the maximal effect) in test [1] turned out to be 0.162 µg/mL; with human 4-1BB on cells [4], 0.121 µg/mL; with human 4-1BB on cells [5], 0.08 µg/mL. Further, the “NF-kB Stimulation (EC50)” value with human 4-1BB on cells [2] turned out to be 0.018 µg/mL. For the same molecule, the binding result in test [3] is listed as “no binding”.

B2: cAB 137QL.G28.21.G2 (antibody, human IgG2, V domains shown)
VH: EVQLQQSGAELVRPGASVKLSCTASGFNIKDYYIHWVNQRPEQGLEWIGRIDPEDGDIAYAPKFQDKATLTVDTSSNTAYLHIIGLTSEDTAVYYCTTGNYYAMDFWGQGTSVTVSS
VL: QIVLTQSPAIMSASLGERVTMTCTASSSVSSSYLHWYQQKPGSSPKLWIYSTSNLASGVPARFSGSGSGTSYSLTISSMEAEDAATYYCHQYHRSPPTFGSGTKLEIK
notes: Chimeric antibody; also called Chimeric G28.21; cAb G28.21.G2
Regarding B2, in test [6], binding was characterised by a dissociation constant (Kd) of 14 nM, the Response came out at 0.204, the “T1/2 Life” value was found to be 2.2 min and the off-rate (koff) (usually the rate constant with which the complex falls apart) was 0.00523 s⁻¹. The kon (in general, a measure of how fast the partners come together) in test [6] was 373000 M⁻¹ s⁻¹. Also, in the test with human 4-1BB on cells [7], the “NF-KB reporter activation, curve fit Bottom” value stood at 879 RLU and the “NF-KB reporter activation, curve fit Top” value worked out at 4590 RLU.

B3: huF1.1.G2.2.4 (antibody, human IgG2, kappa, V domains shown)
VH: QVQLVQSGAEVKKPGASVKVSCKASGYTFTFYTMHWLRQAPGQGLEWIGYINPSSGYTNYNQKFTDRATLTADTSTSTAYMELSSLRSEDTAVYYCARSDGSSSKWYFDVWGQGTTVTVSS
VL: EIVLTQSPDFQSATPKEKVTITCRASSSVSYIHWYQQKPGSSPKAWISATSNLASGVPSRFSGSGSGTSYTLTINRVEAEDAATYYCQQWSSNPFTFGQGTKLEIKR
notes: also called huF1.1.2.4
For B3, in test [6], the Kd (as a rule, the free concentration of one partner at which half of the binding sites on the other are occupied at equilibrium, for simple one-to-one binding) turned out to be 40.6 nM; the Response came to 0.12; the “T1/2 Life” value turned out to be 2.1 min; the koff stood at 0.00559 s⁻¹. In test [6], this molecule had a kon of 138000 M⁻¹ s⁻¹. In the test with human 4-1BB on cells [7], the “NF-KB reporter activation, curve fit Bottom” value is 838 RLU and the “NF-KB reporter activation, curve fit Top” value was found to be 7190 RLU.

B4: huF1.1.G2.4.4 (antibody, human IgG2, kappa, V domains shown)
VH: QVQLVQSGAEVKKPGASVKMSCKASGYTFTFYTMHWLKQAPGQGLEWIGYINPSSGYTNYNQKFTDRATLTADKSTSTAYMELSSLRSEDTAVYYCARSDGSSSKWYFDVWGQGTTVTVSS
VL: EIVLTQSPDFQSATPKEKVTITCRASSSVSYIHWYQQKPGSSPKAWISATSNLASGVPSRFSGSGSGTSYTLTINRVEAEDAATYYCQQWSSNPFTFGQGTKLEIKR
notes: also called huF1.1.4.4
With B4, in test [6], binding was characterised by a dissociation constant (Kd) of 40.4 nM, the Response is 0.137, the “T1/2 Life” value was 1.9 min and the koff worked out at 0.00618 s⁻¹. This molecule registered a kon in test [6] of 153000 M⁻¹ s⁻¹. For the same molecule, in the test with human 4-1BB on cells [7], the “NF-KB reporter activation, curve fit Bottom” value stood at 666 RLU and the “NF-KB reporter activation, curve fit Top” value was 5940 RLU.

B5: F1.1 (antibody, V domains shown)
VH: QVQLQQSGAELARPGASVKMSCKASGYTFTFYTMHWLKQRPGQGLEWIGYINPSSGYTNYNQKFTDKATLTADKSSSTAYMQLSSLTSEDSAVYYCARSDGSSSKWYFDVWGTGTTVTVSS
VL: QIVLSQSPTILSASPGEKVTMTCRASSSVSYIHWYQQKPGSSPKAWISATSNLASGVPARFSGSGSGTSYSLTISRVEAEDAATYYCQQWSSNPFTFGSGTKLEIK
notes: The flow method detects with anti-human IgG; also called anti-4-1BB mAb F1.1
As to B5, the EC50 in test [1] was found to be 0.392 µg/mL; in the test with human 4-1BB on cells [4], 0.341 µg/mL; with human 4-1BB on cells [5] it was 0.233 µg/mL. For the same molecule, the “NF-kB Stimulation (EC50)” value with human 4-1BB on cells [2] was determined as 0.026 µg/mL. Also, in test [3], the binding result is reported as “no binding”.

B6: cAb 137QL.F1.1.G2 (antibody, human IgG2, V domains shown)
VH: QVQLQQSGAELARPGASVKMSCKASGYTFTFYTMHWLKQRPGQGLEWIGYINPSSGYTNYNQKFTDKATLTADKSSSTAYMQLSSLTSEDSAVYYCARSDGSSSKWYFDVWGTGTTVTVSS
VL: QIVLSQSPTILSASPGEKVTMTCRASSSVSYIHWYQQKPGSSPKAWISATSNLASGVPARFSGSGSGTSYSLTISRVEAEDAATYYCQQWSSNPFTFGSGTKLEIK
notes: Chimeric antibody; also called Chimeric F1.1; cAb F1.1.G2
As to B6, in test [6], the Kd was 41.9 nM, the Response was found to be 0.138, the “T1/2 Life” value is 2 min and the koff stood at 0.00578 s⁻¹. For the same molecule, in test [6], the kon turned out to be 138000 M⁻¹ s⁻¹. In the test with human 4-1BB on cells [7], the “NF-KB reporter activation, curve fit Bottom” value was 894 RLU and the “NF-KB reporter activation, curve fit Top” value was 6730 RLU.

B7: huG28.21.G2.1.4 (antibody, human IgG2, kappa, V domains shown)
VH: EVQLVQSGAEVKKPGATVKISCKASGFNIKDYYIHWVNQAPGKGLEWIGRIDPEDGDIAYAPKFQDRVTLTVDTSTDTAYLELSSLRSEDTAVYYCTTGNYYAMDFWGQGTTVTVSS
VL: QIVLTQSPATLSASPGERVTLSCTASSSVSSSYLHWYQQKPGSSPKLWIYSTSNLASGVPARFSGSGPGTSYTLTISSMEPEDAATYYCHQYHRSPPTFGQGTKLEIKR
notes: also called huG28.21.1.4
As for B7, in test [6], binding was put at a Kd of 15.3 nM, the Response was 0.181, the “T1/2 Life” value turned out to be 1.8 min and the koff turned out to be 0.00652 s⁻¹. This molecule had a kon in test [6] of 426000 M⁻¹ s⁻¹. Further, in the test with human 4-1BB on cells [7], the “NF-KB reporter activation, curve fit Bottom” value stood at 625 RLU and the “NF-KB reporter activation, curve fit Top” value was found to be 4170 RLU.

B8: huG28.21.G2.4.4 (antibody, human IgG2, kappa, V domains shown)
VH: EVQLQQSGAEVKKPGATVKLSCKASGFNIKDYYIHWVNQRPGQGLEWIGRIDPEDGDIAYAPKFQDRATLTVDTSTNTAYLELSSLRSEDTAVYYCTTGNYYAMDFWGQGTTVTVSS
VL: QIVLTQSPATLSASPGERVTLSCTASSSVSSSYLHWYQQKPGSSPKLWIYSTSNLASGVPARFSGSGPGTSYTLTISSMEPEDAATYYCHQYHRSPPTFGQGTKLEIKR
notes: also called huG28.21.4.4
With B8, in test [6], the Kd is 10.4 nM, the Response is 0.175, the “T1/2 Life” value was 2.5 min and the koff came out at 0.00467 s⁻¹. Also, the kon in test [6] amounted to 449000 M⁻¹ s⁻¹. In addition, in the test with human 4-1BB on cells [7], the “NF-KB reporter activation, curve fit Bottom” value was found to be 592 RLU and the “NF-KB reporter activation, curve fit Top” value was 3920 RLU.
